Data as given in paper PMC8463877 (2021).

Experiments:
[1] = target: T1, α-synuclein amyloid fibrils (unlabeled) (UniProt P37840 1-140); test: 30 °C
[2] = target: T1, α-synuclein amyloid fibrils (unlabeled); test: 17 °C
[3] = target: T1, α-synuclein amyloid fibrils (unlabeled); test: 37 °C
[4] = target: T1, α-synuclein amyloid fibrils (unlabeled); test: 7 °C
[5] = target: T1, α-synuclein amyloid fibrils (unlabeled); test: 10 °C

B1: GFP-labeled αB-crystallin (αB-c-TEV site-GFP-His tag) (natural protein)
chain: MDIAIHHPWIRRPFFPFHSPSRLFDQFFGEHLLESDLFPTSTSLSPFYLRPPSFLRAPSWFDTGLSEMRLEKDRFSVNLDVKHFSPEELKVKVLGDVIEVHGKHEERQDEHGFISREFHRKYRIPADVDPLTITSSLSSDGVLTVNGPRKQVSGPERTIPITREEKPAVTAAPKK
- Kd [1]: 0.0575 µM
- Kd [2]: 6.1 µM
- Kd [3]: < 0.0103 µM
- Kd [4]: 45.3 µM
- Kd [5]: 12.3 µM
